Measurements taken from patent US20220267452A1 (Chugai, published 2022).

B1: FGA0005/CD3-TRAB (FGA0005VH-F760mnN17/FGA0005VL-k0MTC//TR01H113-F760mnP17/L0011-k0) (bispecific antibody, human IgG1, kappa, N297A)
heavy 1: QSLEESGGRLVTPGTPLTLTCTASGFSLSTYWICWVRQAPGEGLEWIGYISSSGNTYYASWAKGRFTISKTSSTTVDLKMTSLTTEDTATYFCGGHNSDYITGWALDPWGPGTLVTVSSASTKGPSVFPLAPSSKSTSGGTAALGCLVKDYFPEPVTVSWNSGALTSGVHTFPAVLQSSGLYSLSSVVTVPSSSLGTQTYICNVNHKPSNTKVDKKVEPKSCDKTHTCPPCPAPELRGGPKVFLFPPKPKDTLMISRTPEVTCVVVDVSHEDPEVKFNWYVDGVEVHNAKTKPREEQYASTYRVVSVLTVLHQDWLNGKEYKCKVSNKALPAPIEKTISKAKGQPREPQVYTLPPSREEMTKNQVSLTCLVKGFYPSDIAVEWESNGQPENNYKTTPPYLDSDGSFFLYSKLTVDKSRWQQGNVFSCSVMHEALHNHYTQESLSLSP
light 1: AAVLTQTASPMSAAVGGTVTINCQSSKSVYRDKWLSWFQQKPGQPPKLLIYGASNLASGVSSRFKGSGSGTQFTLTISDVQCDDAATYYCLGGYSDNSEDAFGGGTEVVVKRTVAAPSVFIFPPSDEQLKSGTASVVCLLNNFYPREAKVQWKVDNALQSGNSQESVTEQDSKDCTYSLSSTLTLSKADYEKHKVYACEVTHQGLSSPVTKSFNRGEC
heavy 2: QVQLVESGGGVVQPGGSLRLSCAASGFTFSNAWMHWVRQAPGKGLEWVAQIKDKSQNYATYVAESVKGRFTISRADSKNSIYLQMNSLKTEDTAVYYCRYVHYAAGYGVDIWGQGTTVTVSSASTKGPSVFPLAPSSKSTSGGTAALGCLVKDYFPEPVTVSWNSGALTSGVHTFPAVLQSSGLYSLSSVVTVPSSSLGTQTYICNVNHKPSNTKVDKKVEPKSCDKTHTCPPCPAPELRGGPKVFLFPPKPKDTLMISRTPEVTCVVVDVSHEDPEVKFNWYVDGVEVHNAKTKPREEQYASTYRVVSVLTVLHQDWLNGKEYKCKVSNKALPAPIEKTISKAKGQPREPQVYTLPPSRKEMTKNQVSLTCLVKGFYPSDIAVEWESNGQPENNYKTTPPYLDSDGSFFLYSKLTVDKSRWQQGNVFSCSVMHEALHNHYTQKSLSLSP
light 2: DIVMTQSPLSLPVTPGEPASISCRSSQPLVHSNRNTYLHWYQQKPGQAPRLLIYKVSNRFSGVPDRFSGSGSGTDFTLKISRVEAEDVGVYYCGQGTQVPYTFGQGTKLEIKRTVAAPSVFIFPPSDEQLKSGTASVVCLLNNFYPREAKVQWKVDNALQSGNSQESVTEQDSKDSTYSLSSTLTLSKADYEKHKVYACEVTHQGLSSPVTKSFNRGEC
notes: Made by Fab-arm exchange (2-MEA) of the bivalent FGA0005 antibody and the anti-CD3 antibody; also called bispecific antibody FGA0005/CD3-TRAB
B2: FGA0007/CD3-TRAB (FGA0007VH-F760mnN17/FGA0007VL-k0MTC//TR01H113-F760mnP17/L0011-k0) (bispecific antibody, human IgG1, kappa, N297A)
heavy 1: QSVEESGGRLVTPGTPLTLTCTVSGFSLSSYPMSWVRQAPGKGLEWIGIISSSGRTYYASWAKGRFTISKASSTTAALKMTSLTTEDTATYFCARGGVYKYDDYGDYVLNLWGRGTLVTVSSASTKGPSVFPLAPSSKSTSGGTAALGCLVKDYFPEPVTVSWNSGALTSGVHTFPAVLQSSGLYSLSSVVTVPSSSLGTQTYICNVNHKPSNTKVDKKVEPKSCDKTHTCPPCPAPELRGGPKVFLFPPKPKDTLMISRTPEVTCVVVDVSHEDPEVKFNWYVDGVEVHNAKTKPREEQYASTYRVVSVLTVLHQDWLNGKEYKCKVSNKALPAPIEKTISKAKGQPREPQVYTLPPSREEMTKNQVSLTCLVKGFYPSDIAVEWESNGQPENNYKTTPPYLDSDGSFFLYSKLTVDKSRWQQGNVFSCSVMHEALHNHYTQESLSLSP
light 1: AIEMTQTPFSVSAAVGGTVTINCQASENIYSNLAWYQQKPGQPPKLLIYAASYLASGVPSRFKGSGSGTDYTLTISGVQCADAATYYCQCTLYSSTYGVAFGGGTEVVVKRTVAAPSVFIFPPSDEQLKSGTASVVCLLNNFYPREAKVQWKVDNALQSGNSQESVTEQDSKDCTYSLSSTLTLSKADYEKHKVYACEVTHQGLSSPVTKSFNRGEC
heavy 2: B1 heavy 2
light 2: B1 light 2
notes: Made by Fab-arm exchange (2-MEA); also called bispecific antibody FGA0007/CD3-TRAB
B3: FGA0005 bivalent Ab (FGA0005VH-F760mnN17/FGA0005VL-k0MTC) (antibody, human IgG1, kappa, N297A, V domains shown)
VH: QSLEESGGRLVTPGTPLTLTCTASGFSLSTYWICWVRQAPGEGLEWIGYISSSGNTYYASWAKGRFTISKTSSTTVDLKMTSLTTEDTATYFCGGHNSDYITGWALDPWGPGTLVTVSS
VL: AAVLTQTASPMSAAVGGTVTINCQSSKSVYRDKWLSWFQQKPGQPPKLLIYGASNLASGVSSRFKGSGSGTQFTLTISDVQCDDAATYYCLGGYSDNSEDAFGGGTEVVVKR
notes: Rabbit-human chimeric bivalent (monospecific) antibody, expressed in Expi293 cells; also called monospecific antibody FGA0005
B4: FGA0007 bivalent Ab (FGA0007VH-F760mnN17/FGA0007VL-k0MTC) (antibody, human IgG1, kappa, N297A, V domains shown)
VH: QSVEESGGRLVTPGTPLTLTCTVSGFSLSSYPMSWVRQAPGKGLEWIGIISSSGRTYYASWAKGRFTISKASSTTAALKMTSLTTEDTATYFCARGGVYKYDDYGDYVLNLWGRGTLVTVSS
VL: AIEMTQTPFSVSAAVGGTVTINCQASENIYSNLAWYQQKPGQPPKLLIYAASYLASGVPSRFKGSGSGTDYTLTISGVQCADAATYYCQCTLYSSTYGVAFGGGTEVVVKR
notes: Rabbit-human chimeric bivalent (monospecific) antibody, expressed in Expi293 cells; also called monospecific antibody FGA0007

Biological target: T1, wild-type human FGFR3 (hFGFR3 protein, SEQ ID NO: 1) (human, UniProt P22607 23-804)
T1 construct: Full-length cDNA expressed in CHO DXB11s cells; The construct used in PC10/FGFR3 WT cells is not described; also called FGFR3 WT; wild-type hFGFR3
T1 sequence (P22607 other isoform, or with tags, fused parts or gaps): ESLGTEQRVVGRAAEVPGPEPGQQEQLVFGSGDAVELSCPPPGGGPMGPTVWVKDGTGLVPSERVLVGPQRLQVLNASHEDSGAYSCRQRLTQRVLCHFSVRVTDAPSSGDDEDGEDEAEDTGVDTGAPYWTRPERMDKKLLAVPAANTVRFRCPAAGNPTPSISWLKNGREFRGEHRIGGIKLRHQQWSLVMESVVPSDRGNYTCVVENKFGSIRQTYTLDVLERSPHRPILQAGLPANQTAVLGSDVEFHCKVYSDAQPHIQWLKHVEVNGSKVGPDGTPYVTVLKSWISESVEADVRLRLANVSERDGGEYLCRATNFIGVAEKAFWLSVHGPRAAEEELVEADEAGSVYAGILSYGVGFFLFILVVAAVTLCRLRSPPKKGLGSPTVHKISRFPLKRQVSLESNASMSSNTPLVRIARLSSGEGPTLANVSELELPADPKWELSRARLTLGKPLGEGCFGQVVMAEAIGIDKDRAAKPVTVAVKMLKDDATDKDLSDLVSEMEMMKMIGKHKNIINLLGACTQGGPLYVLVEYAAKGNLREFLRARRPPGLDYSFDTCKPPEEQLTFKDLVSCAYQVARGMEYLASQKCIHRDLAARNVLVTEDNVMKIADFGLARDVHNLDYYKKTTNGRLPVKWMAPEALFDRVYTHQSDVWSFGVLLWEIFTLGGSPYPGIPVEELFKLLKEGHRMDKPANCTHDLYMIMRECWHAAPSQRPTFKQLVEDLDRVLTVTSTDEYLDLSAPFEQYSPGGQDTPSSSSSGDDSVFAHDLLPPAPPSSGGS
Test: flow cytometry on hFGFR3/CHO DXB11s cells
Protocol: The binding activity of monospecific antibodies FGA0005 and FGA0007 and bispecific antibodies FGA0005/CD3-TRAB and FGA0007/CD3-TRAB against wild-type hFGFR3 or hFGFR3 S249C mutant on the cell surface of hFGFR3/CHO DXB11s cells and hFGFR3 S249C/CHO DXB11s cells prepared by the method described in Example 1 and parent strain CHO DXB11s cells was measured using flow cytometry.
After 9×10⁶ cells of each cell line were washed with FACS/PBS supplemented with 0.5% BSA, 450 μL of Fixable Viability Dye 780 (eBioscience) diluted 5000 times was added to each of the cells. 25 μL each of the prepared cell suspensions was dispensed into v-bottom 96 well plates (Greiner Bio-one). Monospecific antibodies FGA0005 and FGA0007 with twice the final concentration of 0.01, 0.1, 1 μg/mL were prepared. In addition, bispecific antibodies FGA0005/CD3-TRAB and FGA0007/CD3-TRAB with twice the final concentration of 5, 10, and 20 μg/mL were prepared. 25 μL solutions containing the monospecific antibodies FGA0005 bivalent Ab and FGA0007 bivalent Ab, and the bispecific antibodies FGA0005/CD3-TRAB and FGA0007/CD3-TRAB prepared at a double concentration were added to the v-bottom 96 well plates, and allowed to stand at 4° C. for 30 minutes. After the cells were washed with FACS/PBS, Goat anti-Human IgG Fc Cross-Adsorbed Secondary Antibody, Dylight 650 Conjugate (Invitrogen) diluted 100-fold with FACS/PBS was added at 50 μL each and left to stand at 4° C. for 30 minutes. Cells were washed with FACS/PBS and then analyzed by flow cytometry.

binding result	Binder
no binding (tested: 5, 10, and 20 µg/mL)	B1
no binding (tested: 5, 10, and 20 µg/mL)	B2
no binding (tested: 0.01, 0.1, 1 µg/mL)	B3
no binding (tested: 0.01, 0.1, 1 µg/mL)	B4
